Target: His-REV7 (human, UniProt Q9UI95 1-211)
Assay: pull-down

His-REV7, sequence (Q9UI95 whole entry): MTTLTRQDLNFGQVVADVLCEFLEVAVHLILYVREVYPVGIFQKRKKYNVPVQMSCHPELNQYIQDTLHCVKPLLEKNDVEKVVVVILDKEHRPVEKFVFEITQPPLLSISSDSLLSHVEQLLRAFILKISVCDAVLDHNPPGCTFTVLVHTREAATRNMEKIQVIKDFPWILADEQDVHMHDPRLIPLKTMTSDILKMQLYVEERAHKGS

B1: GST-ATRIP 203–307 (WT) (domain or fragment)
chain: RTKLQTSERANKLAAPSVSHVSPRKNPSVVIKPEACSPQFGKTSFPTKESFSANMSLPHPCQTESGYKPLVGREDSKPHSLRGDSIKQEEAQKSFVDSWRQRSNT
**Q.** Does B1 bind?
**A.** Result: binds

B2: GST-ATRIP 203–348 (domain or fragment)
chain: RTKLQTSERANKLAAPSVSHVSPRKNPSVVIKPEACSPQFGKTSFPTKESFSANMSLPHPCQTESGYKPLVGREDSKPHSLRGDSIKQEEAQKSFVDSWRQRSNTQGSILINLLLKQPLIPGSSLSLCHLLSSSSESPAGTPLQPP
**Q.** Does B2 bind?
**A.** Result: binds

Source: PMC12820532 (Nucleic Acids Research, 2026)
